What was measured:
[1] = biological target: activated FIX-albumin fusion protein with cleavable linker 1088/797 (human) (UniProt P00740); experiment: cell-based or functional assay
[2] = biological target: activated FIX-albumin fusion protein with non-cleavable linker 980/797 (human) (UniProt P00740); experiment: cell-based or functional assay

clotting time (naPTT) after 120 min incubation with AT [1]: 540 s
clotting time (naPTT), control with AT but without incubation [1]: 210 s
factor of increase in clotting time (naPTT) after 120 min incubation with AT [1]: 2.57 x
clotting time (naPTT) after 120 min incubation with AT [2]: 411 s
clotting time (naPTT), control with AT but without incubation [2]: 196 s
Substance: antithrombin III (from UniProt P01008 33-464)

— patent publication EP2032607B1
